# B1: Hip: Hsp70 cochaperone that stabilizes the ADP-state of Hsp70, recombinant His-tagged (protein, UniProt P50502 1-369, looked up)
# Hsc70-interacting protein: MDPRKVNELRAFVKMCKQDPSVLHTEEMRFLREWVESMGGKVPPATQKAKSEENTKEEKPDSKKVEEDLKADEPSSEESDLEIDKEGVIEPDTDAPQEMGDENAEITEEMMDQANDKKVAAIEALNDGELQKAIDLFTDAIKLNPRLAILYAKRASVFVKLQKPNAAIRDCDRAIEINPDSAQPYKWRGKAHRLLGHWEEAAHDLALACKLDYDEDASAMLKEVQPRAQKIAEHRRKYERKREEREIKERIERVKKAREEHERAQREEEARRQSGAQYGSFPGGFPGGMPGNFPGGMPGMGGGMPGMAGMPGLNEILSDPEVLAAMQDPEVMVAFQDVAQNPANMSKYQSNPKVMNLISKLSAKFGGQA
# modifications: His tag
# notes: Hsp70 cochaperone that stabilizes the ADP-state of Hsp70, recombinant His-tagged
# Target: T1, exoplasmic domain of human CD40 (GST-CD40) (Homo sapiens, UniProt P25942)
# T1 construct: The cDNA for the exoplasmic domain of CD40 (amino acids 20-212); made in house; host or cells: E. coli, pGEX-2T
# Assay: GST-CD40 binding and competition assay with recombinant Hsp70 and its domains
# Settings: ADP, 5-fold molar excess of competitor
# Protocol: For binding assays with recombinant Hsp70 and its domains, 3 μM His6-Hsp70 or its His6-tagged domains were incubated with 2 mM ATP, 2 mM ADP or 2 mM ADP and 28 μM peptide C in 50 μl binding buffer (10 mM MOPS/KOH, pH 7.2, 150 mM KCl and 3 mM MgCl2) for 30 min at 37° C. In competition experiments binding was probed with either a 10-fold excess of Hsp70, the two domains, or DnaK, or with a 5-fold excess of Hip or Bag 1 for 10 min at 0° C. To this end, Hsp70, N70, C70 and DnaK were preincubated with ADP, ATP and peptide C as described above. […] 10 μl of the eluates were subjected to SDS-PAGE and analyzed by immunoblotting using a Penta-His-antibody (Quiagen). Blot signals were quantified by Quantity One (Biorad).
# Details for FIG. 3. […] Thereafter samples were affinity purified on glutathione-Sepharose as outlined in Experimental Procedures, subjected to SDS-PAGE and analyzed by immunoblotting with antibodies directed against Hsc70 and Hsp70 (upper lanes), and against Hsp90 (lower lanes). […] After affinity purification samples were analyzed by immunoblotting as described in A, using antibodies directed against the His6-tag. […] Protein bound to Hsp70 was analyzed by affinity purification on Ni-NTA-agarose and immunoblotting with antibodies directed against CD40. […]
# Details for FIG. 5. […] The lower panel is a quantitation of the data. […]
# T1 sequence (P25942 20-212): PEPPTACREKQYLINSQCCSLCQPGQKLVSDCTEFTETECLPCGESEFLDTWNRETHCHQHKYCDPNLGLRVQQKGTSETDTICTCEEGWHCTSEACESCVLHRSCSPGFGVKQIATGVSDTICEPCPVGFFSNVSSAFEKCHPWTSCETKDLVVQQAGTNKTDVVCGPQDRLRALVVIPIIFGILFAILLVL
molecule,measurement,value
B1,competition for the binding of full-length Hsp70 to CD40,acted as an effective competitor of the interaction

# — patent US20040071656A1, “Modulation of heat-shock-protein-based immunotherapies” (priority 2001, published 2004)
